Reference: doi:10.1101/2024.06.16.599208, “A transcription-driven microgel network poised near the sol-gel transition”

Target: SAF-A SPRNK domain (SPRY/PNK) WT (UniProt Q00839 221-679)
Assay: EMSA; 8 mM HEPES pH 7.5, 60 mM KOAc, 16 mM MgOAc; 1 h on ice; 0.125 uM RNA, 0-8 uM protein; 7% acrylamide gel; n=3
Conditions: protein: recombinant; (nickel IMAC); label: DY681

Chain of SAF-A SPRNK domain (SPRY/PNK) WT (Q00839 221-679): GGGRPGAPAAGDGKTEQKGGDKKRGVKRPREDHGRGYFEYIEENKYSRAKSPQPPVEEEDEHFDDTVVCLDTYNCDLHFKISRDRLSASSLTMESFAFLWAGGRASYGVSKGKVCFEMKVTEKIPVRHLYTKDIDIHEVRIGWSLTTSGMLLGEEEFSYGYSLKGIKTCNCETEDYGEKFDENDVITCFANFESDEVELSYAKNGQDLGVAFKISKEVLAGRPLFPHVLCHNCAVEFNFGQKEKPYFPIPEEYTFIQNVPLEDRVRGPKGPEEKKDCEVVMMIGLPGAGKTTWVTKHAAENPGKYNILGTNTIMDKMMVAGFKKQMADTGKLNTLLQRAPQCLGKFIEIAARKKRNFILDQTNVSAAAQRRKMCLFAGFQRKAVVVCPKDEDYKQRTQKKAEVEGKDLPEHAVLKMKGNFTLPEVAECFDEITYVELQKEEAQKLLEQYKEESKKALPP

AAAAAAAAAAAAAAAAAAAA (ssRNA) [oligoA20-DY681]: binds.
